Our source for the other: interaction score values is publication PMC6540616.

Assay in all cases: DHFR protein complementation assay (yeast growth)
What all share (settings): MTX-containing media relative to MTX-free media; read off a plot

Assay [1] has as its target caskin1 SAM fused to DHFR F3 (UniProt Q6P9K8).
Assay [2] concerns the target PTPσ full-length (FL) fused to DHFR F1-2, wild type.
Assay [3] has as its target trio IgPSK fused to DHFR F3.

UniProt Q6P9K8, sequence (Q6P9K8 344-636): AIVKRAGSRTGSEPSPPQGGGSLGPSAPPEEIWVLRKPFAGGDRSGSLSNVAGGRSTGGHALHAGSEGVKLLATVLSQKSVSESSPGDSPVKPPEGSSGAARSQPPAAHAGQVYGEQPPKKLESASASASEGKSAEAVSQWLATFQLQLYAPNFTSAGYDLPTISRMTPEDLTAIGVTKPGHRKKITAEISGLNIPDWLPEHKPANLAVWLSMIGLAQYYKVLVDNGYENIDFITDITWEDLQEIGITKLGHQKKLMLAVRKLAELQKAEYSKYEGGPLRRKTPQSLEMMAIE

In assay [1], “PTPσ full-length (FL) fused to DHFR F1-2, wild type EGFID” had an other: interaction score of -0.11.

Substance “PTPσ full-length (FL) fused to DHFR F1-2, wild type QFG” registered an other: interaction score in assay [2] of 0.8.

In the case of “PTPσ intracellular region (ICR) fused to DHFR F1-2, wild type EGFID”, in assay [3], the other: interaction score is 0.93.
